Experimental data: PMC4662854, “Structure and function of the N‐terminal domain of the human mitochondrial calcium uniporter” (EMBO Reports, 2015)

Target: the molecule itself
Experiment: cross-linking; glutaraldehyde cross-linking of MCU NTD-E in solution, in PBS and in crystallization conditions

B1: MCU NTD-E (extended N-terminal domain of MCU, residues 75-185) (domain or fragment, human, UniProt Q8NE86-1 75-185, looked up)
chain: VTVVYQNGLPVISVRLPSRRERCQFTLKPISDSVGVFLRQLQEEDRGIDRVAIYSPDGVRVAASTGIDLLLLDDFKLVINDLTYHVRPPKRDLLSHENAATLNDVKTLVQQ
notes: mitochondrial calcium uniporter (MCU), human, NP_612366, residues 75-185; In the crystal residues 183-185 were not modelled and the imidazole ring of His170 is possibly modified by unidentified adducts; source: purified (Ni-NTA, SEC on Superdex 75) by a procedure similar to that of T4 lysozyme-MCU NTD; cloned into pColdII
  binding result: binds
